Measurements reported in IntAct's records for PubMed 21239581.

B1: Chromosomal replication initiator protein DnaA (Bacillus subtilis), P05648 (parent)
chain: MENILDLWNQALAQIEKKLSKPSFETWMKSTKAHSLQGDTLTITAPNEFARDWLESRYLHLIADTIYELTGEELSIKFVIPQNQDVEDFMPKPQVKKAVKEDTSDFPQNMLNPKYTFDTFVIGSGNRFAHAASLAVAEAPAKAYNPLFIYGGVGLGKTHLMHAIGHYVIDHNPSAKVVYLSSEKFTNEFINSIRDNKAVDFRNRYRNVDVLLIDDIQFLAGKEQTQEEFFHTFNTLHEESKQIVISSDRPPKEIPTLEDRLRSRFEWGLITDITPPDLETRIAILRKKAKAEGLDIPNEVMLYIANQIDSNIRELEGALIRVVAYSSLINKDINADLAAEALKDIIPSSKPKVITIKEIQRVVGQQFNIKLEDFKAKKRTKSVAFPRQIAMYLSREMTDSSLPKIGEEFGGRDHTTVIHAHEKISKLLADDEQLQQHVKEIKEQLK
partner: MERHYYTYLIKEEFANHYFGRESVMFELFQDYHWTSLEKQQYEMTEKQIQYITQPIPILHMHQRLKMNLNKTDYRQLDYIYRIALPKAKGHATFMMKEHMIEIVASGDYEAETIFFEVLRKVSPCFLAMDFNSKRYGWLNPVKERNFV

Variants of: B1
Conditions: with sira_bacsu sirA

Row | effect of a mutation on the interaction | Variant
1 | disrupting interaction | A50T
2 | disrupting interaction | N47D
3 | disrupting interaction | F49Y
